Experimental data: patent US20250188188A1

Tests used:
[1] = molecular target: active human C1s purified from human serum (CompTech, Tyler, TX, catalog number A104) (human) (UniProt P09871); assay: SPR
[2] = molecular target: recombinant human ProC1s with Arg437 mutated to glutamine (hProC1s_RQ), C-terminal spacer and 10 histidines (human); assay: SPR
Chain of recombinant human ProC1s with Arg437 mutated to glutamine (hProC1s_RQ), C-terminal spacer and 10 histidines (human) (chain, as listed by the source limits assumed, change not shown, form in doubt): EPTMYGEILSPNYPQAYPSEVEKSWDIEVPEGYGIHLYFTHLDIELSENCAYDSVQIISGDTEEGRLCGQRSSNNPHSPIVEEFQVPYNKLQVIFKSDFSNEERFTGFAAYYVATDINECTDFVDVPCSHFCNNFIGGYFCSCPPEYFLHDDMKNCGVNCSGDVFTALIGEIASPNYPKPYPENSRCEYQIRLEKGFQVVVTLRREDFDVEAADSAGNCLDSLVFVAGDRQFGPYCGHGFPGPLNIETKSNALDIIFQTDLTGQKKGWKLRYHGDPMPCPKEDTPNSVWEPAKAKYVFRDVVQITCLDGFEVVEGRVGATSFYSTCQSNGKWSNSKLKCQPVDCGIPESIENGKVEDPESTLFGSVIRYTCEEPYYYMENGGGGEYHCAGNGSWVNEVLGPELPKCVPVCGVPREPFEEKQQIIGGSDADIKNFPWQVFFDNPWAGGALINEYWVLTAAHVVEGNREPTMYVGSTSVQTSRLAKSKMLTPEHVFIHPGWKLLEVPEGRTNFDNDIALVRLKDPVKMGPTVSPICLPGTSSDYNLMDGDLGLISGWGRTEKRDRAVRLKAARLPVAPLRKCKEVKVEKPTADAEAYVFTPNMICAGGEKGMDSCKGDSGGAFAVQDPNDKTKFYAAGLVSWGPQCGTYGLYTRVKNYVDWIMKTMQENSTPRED

Chain of active human C1s purified from human serum (CompTech, Tyler, TX, catalog number A104) (human) (P09871 16-437, chain 1 of 2): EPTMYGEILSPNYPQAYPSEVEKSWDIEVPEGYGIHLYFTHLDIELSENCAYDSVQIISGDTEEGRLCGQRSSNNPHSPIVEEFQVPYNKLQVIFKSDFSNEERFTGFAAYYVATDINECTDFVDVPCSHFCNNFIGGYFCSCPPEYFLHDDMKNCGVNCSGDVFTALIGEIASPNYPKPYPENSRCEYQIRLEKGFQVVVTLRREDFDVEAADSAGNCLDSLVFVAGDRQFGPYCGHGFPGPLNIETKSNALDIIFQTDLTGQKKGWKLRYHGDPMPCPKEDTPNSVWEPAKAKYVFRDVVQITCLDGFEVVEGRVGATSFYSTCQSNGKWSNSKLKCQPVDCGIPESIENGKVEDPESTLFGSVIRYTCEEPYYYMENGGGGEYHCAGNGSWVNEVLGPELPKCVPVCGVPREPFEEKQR
Chain of active human C1s purified from human serum (CompTech, Tyler, TX, catalog number A104) (human) (P09871 438-688, chain 2 of 2): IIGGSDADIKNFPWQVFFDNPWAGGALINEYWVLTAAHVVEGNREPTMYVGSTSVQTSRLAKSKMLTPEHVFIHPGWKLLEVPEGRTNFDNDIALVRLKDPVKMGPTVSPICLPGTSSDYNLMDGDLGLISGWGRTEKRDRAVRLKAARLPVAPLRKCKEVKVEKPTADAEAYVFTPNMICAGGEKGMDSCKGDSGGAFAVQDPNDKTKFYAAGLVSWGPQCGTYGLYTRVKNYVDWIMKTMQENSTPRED

recombinant sutimlimab/BIVV009/TNT009 (antibody)
Kd [1]: 0.25 nM
Kd [2]: 0.4 nM
